For the assay, the target named is T1, OB-Ra (Mus musculus, UniProt P48356).
T1 construct: expressed in transfected cells; host or cells: COS-7
T1 sequence (P48356 22-894 isoform P48356-2 limits assumed): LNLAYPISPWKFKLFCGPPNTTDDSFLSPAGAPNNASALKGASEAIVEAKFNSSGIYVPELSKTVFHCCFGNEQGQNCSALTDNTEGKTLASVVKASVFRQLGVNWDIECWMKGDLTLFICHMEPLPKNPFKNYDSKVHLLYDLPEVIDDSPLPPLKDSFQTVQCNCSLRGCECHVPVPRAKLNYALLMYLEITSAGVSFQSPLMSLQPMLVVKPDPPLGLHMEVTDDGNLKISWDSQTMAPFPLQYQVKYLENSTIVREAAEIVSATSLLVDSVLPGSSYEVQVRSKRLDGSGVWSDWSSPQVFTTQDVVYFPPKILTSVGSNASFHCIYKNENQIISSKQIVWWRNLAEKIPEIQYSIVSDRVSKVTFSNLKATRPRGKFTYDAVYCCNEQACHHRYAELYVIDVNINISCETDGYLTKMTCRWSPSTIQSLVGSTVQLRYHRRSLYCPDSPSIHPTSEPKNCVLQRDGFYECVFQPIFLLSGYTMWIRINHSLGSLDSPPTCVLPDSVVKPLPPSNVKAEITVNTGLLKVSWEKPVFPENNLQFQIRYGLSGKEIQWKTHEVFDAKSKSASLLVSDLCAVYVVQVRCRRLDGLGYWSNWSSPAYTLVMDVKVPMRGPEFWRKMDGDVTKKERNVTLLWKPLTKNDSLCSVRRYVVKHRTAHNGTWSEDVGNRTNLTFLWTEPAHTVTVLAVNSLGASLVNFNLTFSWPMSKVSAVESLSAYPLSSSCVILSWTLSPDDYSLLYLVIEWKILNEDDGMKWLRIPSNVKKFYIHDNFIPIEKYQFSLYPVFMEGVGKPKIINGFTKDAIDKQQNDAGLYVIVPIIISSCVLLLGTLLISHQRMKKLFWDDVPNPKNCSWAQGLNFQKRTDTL
Nature of the assay: Inhibition of AP-OB fusion protein binding by COS-7 cells transfected with OB receptor. Conditions: 1 nM human AP-OB, peptide up to 300 μM. From the text:
Initial experiments to determine the mechanism of action of LEP(116–130) utilized two highly sensitive in vitro bioassays routinely used to assess leptin binding and receptor activation (see e.g., White, et al., 1997. Proc. Natl. Acad. Sci. U.S.A. 94: 10657–10662). An alkaline phosphatase (“AP”)-leptin (“OB”) fusion protein (“AP-OB”) was used to measure inhibition of leptin binding in the absence or presence of recombinant mouse leptin (positive control) or peptide, by COS-7 cells transfected with the long (signaling) form of the mouse OB receptor (“OB-RL”). Signal transduction assays were done in GT1–7 cells cotransfected with AP reporter and OB-RL constructs. Secreted alkaline phosphatase (“SEAP”) activity in response to stimulation with mouse leptin or peptide was measured by chemiluminescence.
Two days after transfection, COS-7 cells were incubated with 1 nm human AP-OB fusion protein and bound AP activity was determined by chemiluminescence using the Great EscApe alkaline phosphatase detection kit as described by the manufacturer (CLON-TECH).
COS-7 cells were transfected with expression vector for OB-Ra. Two days after transfection, the cells were incubated with 1 nM human AB-OB fusion protein in the absence or presence of 30 nM mouse leptin, 300 μM LEP(116–130) or LEP(146–160). Bound AP activity was determined as has been described. See., e.g., Kamohara et al., 1997 Nature 389: 374–377.

Regarding “A L S R L Q G S L Q D I L Q Q (ALSRLQGSLQDILQQ) [LEP(146–160)]”, the “Inhibition of AP-OB fusion protein binding” value is listed as “neither LEP(116–130) nor LEP(146–160), at 300 μM, were able to inhibit AP-OB binding”. The “Inhibition of AP-OB fusion protein binding” value (listed as LEP(145–160)) is “unable to inhibit AP-OB binding”.

(Values after US7208572B2, “Leptin-related peptides” (Albany Medical College, priority 1998, dated 2007).)
